# Laboratory results: the Immune Epitope Database (IEDB)
# Key:
# HLA-A*30:01 = assay: IEDB peptide-MHC binding, purified MHC/competitive/radioactivity; filed as Kd, often an IC50 or EC50 that approximates it; ≥ and ≤ were set here for values at or beyond the usual limits of such assays
# HLA-A*02:01 [1] = assay: IEDB peptide-MHC binding, purified MHC/competitive/fluorescence; ≥ and ≤ were set here for values at or beyond the usual limits of such assays
# HLA-A*26:01 = assay: IEDB peptide-MHC binding, purified MHC/competitive/radioactivity; filed as Kd, often an IC50 or EC50 that approximates it; ≥ and ≤ were set here for values at or beyond the usual limits of such assays
# HLA-A*68:01 = assay: as above; settings: source organism: Dengue virus 2 Jamaica/1409/1983
# HLA-A*30:02 = assay: as above
# HLA-B*58:01 = assay: IEDB peptide-MHC binding, purified MHC/direct/fluorescence; filed as Kd, often an IC50 or EC50 that approximates it; ≥ and ≤ were set here for values at or beyond the usual limits of such assays; settings: source organism: Mycobacterium tuberculosis
# HLA-B*15:01 = assay: as above
# HLA-A*23:01 = assay: IEDB peptide-MHC binding, purified MHC/competitive/radioactivity; filed as Kd, often an IC50 or EC50 that approximates it; ≥ and ≤ were set here for values at or beyond the usual limits of such assays; settings: source organism: Dengue virus 2 Jamaica/1409/1983
# HLA-A*02:01 [2] = assay: IEDB peptide-MHC binding, purified MHC/direct/fluorescence; filed as Kd, often an IC50 or EC50 that approximates it; ≥ and ≤ were set here for values at or beyond the usual limits of such assays; settings: source organism: Influenza A virus (A/Jiangsu/38/2004(H3N2))
# HLA-A*01:01 = assay: IEDB peptide-MHC binding, purified MHC/competitive/radioactivity; filed as Kd, often an IC50 or EC50 that approximates it; ≥ and ≤ were set here for values at or beyond the usual limits of such assays
# HLA-A*02:02 = assay: as above
# HLA-A*02:03 = assay: as above
# HLA-A*02:06 = assay: as above
# HLA-A*03:01 = assay: IEDB peptide-MHC binding, purified MHC/direct/fluorescence; filed as Kd, often an IC50 or EC50 that approximates it; ≥ and ≤ were set here for values at or beyond the usual limits of such assays; settings: source organism: Vibrio parahaemolyticus RIMD 2210633
# [3] = source organism: Vaccinia virus WR
# [4] = source organism: Dengue virus 2 Jamaica/1409/1983
# [5] = source organism: Zaire ebolavirus
# [6] = source organism: Dengue virus 4 Philippines/H241/1956
# [7] = source organism: Lymphocytic choriomeningitis virus (strain Armstrong)
# [8] = source organism: Sudan ebolavirus
# [9] = source organism: Dengue virus 3 Singapore/8120/1995
# [10] = source organism: Dengue virus 3 Martinique/1243/1999
# [11] = source organism: SARS coronavirus Tor2
# [12] = source organism: Mammarenavirus brazilense
sequence,measurement,setting,value
AAMISLAKK,Kd,HLA-A*30:01; [3],151 nM
AGKRSLRPQP,Kd,HLA-A*30:01; [4],1900 nM
AIVNAQPKC,IC50,HLA-A*02:01 [1]; [5],≥ 73800 nM
ALTLATGPIS,Kd,HLA-A*30:01; [4],220 nM
ATWAENIQV,IC50,HLA-A*02:01 [1]; source organism: West Nile virus NY-99,780 nM
EKLRIKGMSY,Kd,HLA-A*26:01; [6],4650 nM
ENPYRTWAY,Kd,HLA-A*26:01; [6],4380 nM
EQGLIQYPT,IC50,HLA-A*02:01 [1]; [5],60500 nM
ERNRVSTPQG,Kd,HLA-A*30:01; [6],121 nM
ESWILRNPGF,Kd,HLA-A*30:01; [6],427 nM
same,Kd,HLA-A*26:01; [6],9730 nM
ETAECPNTNR,Kd,HLA-A*68:01,13.9 nM
same,Kd,HLA-A*26:01; [4],10500 nM
EYHLLYQKT,Kd,HLA-A*30:02; [7],≥ 35000 nM
same,Kd,HLA-A*26:01; [7],≥ 77900 nM
FARLLNLSG,IC50,HLA-A*02:01 [1]; [5],48200 nM
FKIDNNTFV,IC50,HLA-A*02:01 [1]; [8],40800 nM
FSGLLIVKT,IC50,HLA-A*02:01 [1]; [5],≥ 370000 nM
GGTPAVEEW,Kd,HLA-B*58:01,202 nM
GLDDQEKKI,IC50,HLA-A*02:01 [1]; [5],41200 nM
GLITNTIAG,IC50,HLA-A*02:01 [1]; [5],4100 nM
GLNLEGNGV,IC50,HLA-A*02:01 [1]; [5],10800 nM
GLRQLANET,IC50,HLA-A*02:01 [1]; [8],34200 nM
GTKIALLEL,Kd,HLA-A*30:01; [3],1.34 nM
GVKGFSFKY,Kd,HLA-B*15:01; source organism: Influenza A virus (A/eka/Thailand/EkA1NRC/2004(H5N1)),≥ 20000 nM
GVPLLALGCY,Kd,HLA-A*30:02; source organism: Dengue virus 1 Brazil/97-11/1997,37.6 nM
HSLISNLLV,Kd,HLA-A*30:01; source organism: Vaccinia virus Copenhagen,558 nM
HVKIPTHLT,Kd,HLA-A*30:01; [3],224 nM
IDQIIHDFV,IC50,HLA-A*02:01 [1]; [5],≥ 195000 nM
IFITDNVHTW,Kd,HLA-A*23:01,36.7 nM
ILDGENCTL,Kd,HLA-A*02:01 [2],37.8 nM
ILPEEQDQNY,Kd,HLA-A*30:02; [9],≥ 37200 nM
same,Kd,HLA-A*01:01; [9],≥ 38700 nM
IMETIDPVYI,Kd,HLA-A*02:02; [3],28.6 nM
same,Kd,HLA-A*02:03; [3],239 nM
same,Kd,HLA-A*02:06; [3],349 nM
ITLILSNKLL,Kd,HLA-A*02:02; [3],1090 nM
same,Kd,HLA-A*02:03; [3],4690 nM
same,Kd,HLA-A*02:06; [3],3890 nM
IVSLCPTKKL,Kd,HLA-A*02:02; [3],9.46 nM
same,Kd,HLA-A*02:03; [3],29.5 nM
same,Kd,HLA-A*02:06; [3],≥ 28400 nM
IWYMWLGARY,Kd,HLA-A*30:02; [10],3.2 nM
KISISSLCK,Kd,HLA-A*30:01; [3],88.1 nM
KIVQLPKRGV,Kd,HLA-A*02:02; [3],4120 nM
same,Kd,HLA-A*02:03; [3],51.4 nM
same,Kd,HLA-A*02:06; [3],2250 nM
KLLIVLTCI,Kd,HLA-A*02:02; [11],260 nM
same,Kd,HLA-A*02:03; [11],1940 nM
same,Kd,HLA-A*02:06; [11],449 nM
KLVETGFVI,Kd,HLA-A*02:02; [3],13200 nM
same,Kd,HLA-A*02:03; [3],1070 nM
same,Kd,HLA-A*02:06; [3],200 nM
KMRDTLPAK,Kd,HLA-A*30:01; [3],1.58 nM
KNKESLPML,Kd,HLA-A*30:01; [3],18.3 nM
KSRVERVQV,Kd,HLA-A*30:01; [3],11.2 nM
KTMGSCIQM,Kd,HLA-A*30:01; [3],52.3 nM
KVAAEGINY,Kd,HLA-A*30:02; source organism: Dengue virus 2 Peru/IQT2913/1996,110 nM
KVASEGIKY,Kd,HLA-A*30:02; [10],1740 nM
KVEKYLPEV,Kd,HLA-A*02:02; [3],1050 nM
same,Kd,HLA-A*02:03; [3],171 nM
same,Kd,HLA-A*02:06; [3],116 nM
KVHEISARG,Kd,HLA-A*30:01; [3],176 nM
KVIKLVKSL,Kd,HLA-A*02:02; [3],578 nM
same,Kd,HLA-A*02:03; [3],42.5 nM
same,Kd,HLA-A*02:06; [3],260 nM
KVNPEIDTT,IC50,HLA-A*02:01 [1]; [5],≥ 120000 nM
KVYLSTFNM,Kd,HLA-A*02:02; [3],482 nM
same,Kd,HLA-A*02:03; [3],786 nM
same,Kd,HLA-A*02:06; [3],265 nM
LASLTPKAQ,IC50,HLA-A*02:01 [1]; source organism: Variola virus,≥ 206000 nM
LICGLRQLA,IC50,HLA-A*02:01 [1]; [5],995 nM
LIGNEEYTDY,Kd,HLA-A*01:01; [4],1070 nM
LLNLSGVNN,IC50,HLA-A*02:01 [1]; [5],≥ 167000 nM
LLQAGASVK,Kd,HLA-A*03:01,79 nM
LLWYRRGTF,Kd,HLA-B*15:01; source organism: Mycobacterium tuberculosis C,360 nM
LNISGYNYSL,Kd,HLA-A*02:02; [12],77.1 nM
same,Kd,HLA-A*02:03; [12],≥ 49000 nM
same,Kd,HLA-A*02:06; [12],1090 nM
LSRKTFDSEY,Kd,HLA-A*30:02; [4],627 nM
same,Kd,HLA-A*01:01; [4],1820 nM
LVAEHRFENM,Kd,HLA-A*02:02; [3],2050 nM
same,Kd,HLA-A*02:03; [3],462 nM
same,Kd,HLA-A*02:06; [3],723 nM
LVFLWLLWPV,Kd,HLA-A*02:02; [11],0.926 nM
same,Kd,HLA-A*02:03; [11],1.93 nM
same,Kd,HLA-A*02:06; [11],0.564 nM
MIIGEPIIVA,Kd,HLA-A*02:02; [3],42 nM
same,Kd,HLA-A*02:03; [3],111 nM
same,Kd,HLA-A*02:06; [3],124 nM
MPLGVVTNS,IC50,HLA-A*02:01 [1]; [8],13000 nM
MQLKIDKLT,Kd,HLA-A*02:02; [3],7670 nM
same,Kd,HLA-A*02:03; [3],≥ 60100 nM
same,Kd,HLA-A*02:06; [3],≥ 59600 nM
MTDDIGMGVT,Kd,HLA-A*01:01; [4],1130 nM
NMLDDFSAGA,Kd,HLA-A*02:02; [3],308 nM
same,Kd,HLA-A*02:03; [3],161 nM
same,Kd,HLA-A*02:06; [3],242 nM
